# B1: Lysozyme C, P61626 (parent)
# chain: MKALIVLGLVLLSVTVQGKVFERCELARTLKRLGMDGYRGISLANWMCLAKWESGYNTRATNYNAGDRSTDYGIFQINSRYWCNDGKTPGAVNACHLSCSALLQDNIADAVACAKRVVRDPQGIRAWVAWRNRCQNRDVRQYVQGCGV
# Variants of: B1
# Conditions: Homo sapiens; pH 2.66; Thermal; DSC; Gly-HCl 0.05 M; structure 1LZ1; whole UniProt chain shown
Variant,Tm [°C],unfolding enthalpy (calorimetric) [kcal/mol],unfolding enthalpy (van 't Hoff) [kcal/mol]
V128Y,63.3,106,105
V92R,63.8,102,100

# Same assay, conditions: Homo sapiens; pH 2.7; 64.9 °C; Thermal; DSC; Gly-HCl 0.05 M; structure 1LZ1; whole UniProt chain shown
Variant,ddG of mutation (higher = less stable) [kcal/mol],unfolding enthalpy (calorimetric) [kcal/mol],heat capacity change of unfolding [kcal/mol/K]
V128Y,0.14,108,
V92D,0.43,107,1.58
V92R,0.07,104,1.67
V92Y,0.24,107,1.65
V92S,0.38,108,1.22
V92N,0.33,115,1.1

# Same assay, conditions: Homo sapiens; pH 2.7; Thermal; DSC; Gly-HCl 0.05 M; structure 1LZ1; whole UniProt chain shown
Variant,Tm [°C],"change of melting temperature, mutant - wild type (higher = more stable) [°C]",heat capacity change of unfolding [kcal/mol/K],unfolding enthalpy (calorimetric) [kcal/mol]
V128Y,64.4,-0.5,,
V128N,65.1,0.2,,
V92D,63.5,-1.4,,
V92R,64.6,-0.3,,
V92Y,64,-0.9,,
V92S,64.9,0,1.22,108
V92N,63.9,-1,,

# Same assay, conditions: Homo sapiens; pH 2.98; Thermal; DSC; Gly-HCl 0.05 M; structure 1LZ1; whole UniProt chain shown
Variant,Tm [°C],unfolding enthalpy (calorimetric) [kcal/mol],unfolding enthalpy (van 't Hoff) [kcal/mol]
V128Y,69.3,114,114
V92D,68.1,112,118

# Same assay, conditions: Homo sapiens; pH 3.18; Thermal; DSC; Gly-HCl 0.05 M; structure 1LZ1; whole UniProt chain shown
Variant,Tm [°C],unfolding enthalpy (calorimetric) [kcal/mol],unfolding enthalpy (van 't Hoff) [kcal/mol]
V128Y,72.2,120,121
V92R,72.8,117,114

# Same assay, conditions: Homo sapiens; pH 3.38; Thermal; DSC; Gly-HCl 0.05 M; structure 1LZ1; whole UniProt chain shown
Variant,Tm [°C],unfolding enthalpy (calorimetric) [kcal/mol],unfolding enthalpy (van 't Hoff) [kcal/mol]
V128Y,75.4,125,125

# Same assay, conditions: Homo sapiens; pH 2.64; Thermal; DSC; Gly-HCl 0.05 M; structure 1LZ1; whole UniProt chain shown
Variant,Tm [°C],unfolding enthalpy (calorimetric) [kcal/mol],unfolding enthalpy (van 't Hoff) [kcal/mol]
V128N,64,108,109

# Same assay, conditions: Homo sapiens; pH 2.83; Thermal; DSC; Gly-HCl 0.05 M; structure 1LZ1; whole UniProt chain shown
Variant,Tm [°C],unfolding enthalpy (calorimetric) [kcal/mol],unfolding enthalpy (van 't Hoff) [kcal/mol]
V128N,67.2,113,115
V92D,65.9,107,115
V92S,66,109,115

# Same assay, conditions: Homo sapiens; pH 3.04; Thermal; DSC; Gly-HCl 0.05 M; structure 1LZ1; whole UniProt chain shown
Variant,Tm [°C],unfolding enthalpy (calorimetric) [kcal/mol],unfolding enthalpy (van 't Hoff) [kcal/mol]
V128N,70.6,118,118

# Same assay, conditions: Homo sapiens; pH 3.13; Thermal; DSC; Gly-HCl 0.05 M; structure 1LZ1; whole UniProt chain shown
Variant,Tm [°C],unfolding enthalpy (calorimetric) [kcal/mol],unfolding enthalpy (van 't Hoff) [kcal/mol]
V128N,71.7,120,122

# Same assay, conditions: Homo sapiens; pH 2.6; Thermal; DSC; Gly-HCl 0.05 M; structure 1LZ1; whole UniProt chain shown
Variant,Tm [°C],unfolding enthalpy (calorimetric) [kcal/mol],unfolding enthalpy (van 't Hoff) [kcal/mol]
V92D,61.7,103,110

# Same assay, conditions: Homo sapiens; pH 3.1; Thermal; DSC; Gly-HCl 0.05 M; structure 1LZ1; whole UniProt chain shown
Variant,Tm [°C],unfolding enthalpy (calorimetric) [kcal/mol],unfolding enthalpy (van 't Hoff) [kcal/mol]
V92D,70.1,115,123

# Same assay, conditions: Homo sapiens; pH 3.25; Thermal; DSC; Gly-HCl 0.05 M; structure 1LZ1; whole UniProt chain shown
Variant,Tm [°C],unfolding enthalpy (calorimetric) [kcal/mol],unfolding enthalpy (van 't Hoff) [kcal/mol]
V92D,72.5,120,127

# Same assay, conditions: Homo sapiens; pH 2.85; Thermal; DSC; Gly-HCl 0.05 M; structure 1LZ1; whole UniProt chain shown
Variant,Tm [°C],unfolding enthalpy (calorimetric) [kcal/mol],unfolding enthalpy (van 't Hoff) [kcal/mol]
V92R,67.3,108,105

# Same assay, conditions: Homo sapiens; pH 3; Thermal; DSC; Gly-HCl 0.05 M; structure 1LZ1; whole UniProt chain shown
Variant,Tm [°C],unfolding enthalpy (calorimetric) [kcal/mol],unfolding enthalpy (van 't Hoff) [kcal/mol]
V92R,69.5,112,109

# Same assay, conditions: Homo sapiens; pH 3.22; Thermal; DSC; Gly-HCl 0.05 M; structure 1LZ1; whole UniProt chain shown
Variant,Tm [°C],unfolding enthalpy (calorimetric) [kcal/mol],unfolding enthalpy (van 't Hoff) [kcal/mol]
V92R,73.2,118,116

# Same assay, conditions: Homo sapiens; pH 2.67; Thermal; DSC; Gly-HCl 0.05 M; structure 1LZ1; whole UniProt chain shown
Variant,Tm [°C],unfolding enthalpy (calorimetric) [kcal/mol],unfolding enthalpy (van 't Hoff) [kcal/mol]
V92Y,63.3,104,104

# Same assay, conditions: Homo sapiens; pH 3.02; Thermal; DSC; Gly-HCl 0.05 M; structure 1LZ1; whole UniProt chain shown
Variant,Tm [°C],unfolding enthalpy (calorimetric) [kcal/mol],unfolding enthalpy (van 't Hoff) [kcal/mol]
V92Y,70,115,116

# Same assay, conditions: Homo sapiens; pH 3.21; Thermal; DSC; Gly-HCl 0.05 M; structure 1LZ1; whole UniProt chain shown
Variant,Tm [°C],unfolding enthalpy (calorimetric) [kcal/mol],unfolding enthalpy (van 't Hoff) [kcal/mol]
V92Y,73.3,120,120

# Same assay, conditions: Homo sapiens; pH 3.26; Thermal; DSC; Gly-HCl 0.05 M; structure 1LZ1; whole UniProt chain shown
Variant,Tm [°C],unfolding enthalpy (calorimetric) [kcal/mol],unfolding enthalpy (van 't Hoff) [kcal/mol]
V92Y,74.1,122,123

# Same assay, conditions: Homo sapiens; pH 2.61; Thermal; DSC; Gly-HCl 0.05 M; structure 1LZ1; whole UniProt chain shown
Variant,Tm [°C],unfolding enthalpy (calorimetric) [kcal/mol],unfolding enthalpy (van 't Hoff) [kcal/mol]
V92S,62.1,105,110

# Same assay, conditions: Homo sapiens; pH 3.28; Thermal; DSC; Gly-HCl 0.05 M; structure 1LZ1; whole UniProt chain shown
Variant,Tm [°C],unfolding enthalpy (calorimetric) [kcal/mol],unfolding enthalpy (van 't Hoff) [kcal/mol]
V92S,72.2,117,122

# Same assay, conditions: Homo sapiens; pH 2.65; Thermal; DSC; Gly-HCl 0.05 M; structure 1LZ1; whole UniProt chain shown
Variant,Tm [°C],unfolding enthalpy (calorimetric) [kcal/mol],unfolding enthalpy (van 't Hoff) [kcal/mol]
V92N,63,110,114

# Same assay, conditions: Homo sapiens; pH 2.84; Thermal; DSC; Gly-HCl 0.05 M; structure 1LZ1; whole UniProt chain shown
Variant,Tm [°C],unfolding enthalpy (calorimetric) [kcal/mol],unfolding enthalpy (van 't Hoff) [kcal/mol]
V92N,66.2,114,116

# — FireProtDB (doi:10.1074/jbc.m110728200)
